According to the DeepSol protein solubility set:

assay: soluble on expression in E. coli; label from the status in PepcDB or PDB records

**Q.** Which “soluble on expression in E. coli” value does the source give for “MGSDKIHHHHHHMKLIAVGDNVVDYYQDQETFYPGGNALNVAVLAKRLGHESSYIGIVGNDEAAAHLLNVLKLEQVNADYIRQAHGENGMAIVTLDEQGDRIFVRSNKGGIQSRLRLAFQEKDVSFISGHDLLHTSVYSRLENDLPQLCGLVPVSFDFSTNREDDYLRRVCPYVTYAFFSGSDLSESECGELAKTAHGYGAKMVCMTRGGQGAILSAGDRVYHQPIVEADIIDTLGAGDSFIAGFLTAFCVKQDITYALRQAAETAAKTCGVYGAFGYGYPYRLEDGGSSEKTRIL” here?
**A.** not soluble

**Q.** With “MGSDKIHHHHHHMKLLHIERHTTCLNYVSDYNICFIHQRLFSGGDFKIDNHHHSCILFLLKGEILTSCSEFHDQHIVEGHMVLFPQNDPNQSKSMTETEFILLFFDNQVNLHNKMSIELSAIHLESEKSCFYSLSICPPLRHVLDSICFYLKQKVQCSHMHELKQKEIFMVFGTFYNRTDMAHFLMPITGRDPNFKSFVLENYLQIRNIKQFAQLYHCSERSFNRKFKSCFHDTPYNWILNQKTRHIKGQLANRNIPISEIARTFHFASPSHFTTYCKKRLGITPSEFREKIAK” as the sequence, how does the “soluble on expression in E. coli” value read?
**A.** not soluble

**Q.** For “MGSDKIHHHHHHMKLMIGKLFWDTGASMPCYPSLENDMICDMLVVGSGEAGAQIAYSLVKMGMRVTLIEKNMISCGSTAANTGLLQFLHDKSLTSLIHTFGEEKGVRAYKLCYEALRTMEKVVPTLDIDPQFIPRNSLYYASKSEDVSFLQEEYKTLQNYEFPVEYFTASDIKERYPFTRQAALYTHGDAEVNPYLLAHSLLHKANQMGANIYEHTEAIHIKKRQNDLICYTKTGNQIVAKNIIMATGYEALFGKKEKNTTVETSYAVVTNKVDSFEGWHEQSLIWETARPYLYFRTYENRIIVGGLDEAMKIQTIGDTKLLHKRDVLINIIKEMFPQYKDIQAEYYWAAAFGGSHDGLPILKEDNKIHNLFYALPYGGNGTVYGMVFAKIFEQLFTNKESEDFSLFNR”, which “soluble on expression in E. coli” value is on record?
**A.** not soluble

**Q.** For “MGSDKIHHHHHHMKLPTNSILISLKIGIVSDGQYGERAFEQIRRRFPTEWILLPYPSSPVVDEIELTIPPCDLYISYLRHPDIAMELIRTGIPALLGINLGPGFIAQAHEFNPAVIGPETMCSVLPNTKFCQVNEYAKVFGRPVFYLVMDGDRIVWCKTIRGSPCGSTDAAASEISGQILDQEALSRFALSICHNCRAPRFGKTCDKEKAGIIHLEELMRALKGVNPKKWEELIQVLEKIGCSFPNE”, which “soluble on expression in E. coli” value is on record?
**A.** not soluble

**Q.** Which “soluble on expression in E. coli” value does the source give for “MGSDKIHHHHHHMKLSGWGRFPNVDCTVRVARSEVDVRAAVAASPLIARGNGRAYGDAALNRGLTLDMTGMDRMLSFEDGVLVAEAGVLLGDIIHTFLPRGWFPMVTPGTKYVSLGGAIAADVHGKNHHLDGSFRSCVDWVDLMGPDGAVTRVTREDDLFDWTLGGMGLTGVILRAQIRLRAVETSFIAQETRALTSLTDTLEAFEDTLDALYSVAWIDCSDGPHHGHSLLLLGRHATPGDLPKRQKPLEVKRRAKLPVPFGAPPFLFRGLWLRALNGIYWRRGAKRAGHTIVDWDSYFYPLDALANWNRLYGRNGFLQFQCALPLETAADGLAALMAEIAASQSGSVLSVLKRFGPQSGHFSFPMPGYTLALDFPANERSLALMERLDAITLAHKGRFYLAKDARMPEAVVKADARAEAFAAMRTQMGLRDRFASEQSERLGL” here?
**A.** not soluble

**Q.** Which “soluble on expression in E. coli” value does the source give for “MGSDKIHHHHHHMKLSMPRFDQAPVLVVGDVMLDRYWHGGTSRISPEAPVPVVKVDQIEDRPGGAANVALNIAALGAPASLVGVTGDDEAAESLTNSLKAAGVVARFQRIADQPTIVKLRVMSRHQQLLRIDFEEPFNTDPLALSAEVYSLLDGIKVLVLSDYGKGALKNHQALIQAARKRGIPVLADPKGKDFAIYRGASLITPNLSEFEAIVGHCEDEAQLVTKGAQLMQELDLGALLVTRGEHGMTLLRPDQQALHLPARAREVFDVTGAGDTVISTLAAAIAAGEELPHAVALANLAAGIVVGKLGTAAISAPELRRAIQREEGSERGVLGLEQLLLAVDDARAHKEKIVFTNGCFDILHAGHVTYLEQARAQGDRLIVAVNDDASVSRLKGPGRPINSVDRRMAVLAGLGAVDWVISFPEGTPENLLTHVKPDVLVKGGDYGIDQVVGADIVQAYGGEVRVLGLVENSSTTAIVEKIRGQG” here?
**A.** not soluble

**Q.** With “MGSDKIHHHHHHMKNFSLWCDFIENSFLDNEFLNLLSHGINGATSNPAIFKNAILNSPIYKDKILKLKEKKTKDIYEELAISDIQKAADKLAPLFYQKNDGFISIEIDPRLHDNTTLSLGEAKRLYSAIGKENIMIKIPATKASYEVMYELMKNGISVNATLIFSLEQSQKCFEALNAGLVEFRKNNIALKEQNTRTPQAVISIFVSRFDRLLNPKAKEQNRIGILNANLAYNNIYSKNEPNIRALFASTGVKGDDLPKDYYIKELLFENSVNTAPLDAIEAFKGKMHFKKPLMNFEIYTELNQIISQSEREKACNDLLSDGLEQFCIAFEDILKAL” as the sequence, how does the “soluble on expression in E. coli” value read?
**A.** not soluble

**Q.** For “MGSDKIHHHHHHMKNRAGEYRTNLTGELQYRSFLPYPLPPSPPIELDEETIKLLAKANRSIGILEGMSRQIPDIDLFVSMYVRKEALLSSQIEGTQVTLDDILDPNIEENTNQNVADVINYIKASHYGSARLAELPLCNRLLKEIHEILMQDVRGGEKSPGEFRSSQNWIGPAGSTLRDARYIPPHPEDMLEAMSDLEKFINSEDELDPLIKIALIHYQFETIHPFLDGNGRIGRLLIALYLINQNLLSHETLYISYFLKRNRIEYYDRLTEVRSKGNFEQWLKFFLLAAYESAQDAIDTIERILKLHYKNVEVVKNTGKASKTVMKVFNYLESSPIIDIKKTSLALELSFNTVSNAVNKLVELGILKQTENVRRSRVFAYEEYLEILRKDT”, which “soluble on expression in E. coli” value is on record?
**A.** not soluble

**Q.** Which “soluble on expression in E. coli” value does the source give for “MGSDKIHHHHHHMKNRIEDRRIKYTKMVIKQSLITLLKNKPINKVTVTEICNLADINRSTFYTHYSNPYDLLDSIEEELFEEVKSSLRDSEGETKIENTVNEIFKAIAKNKELFKIFFSSHRDYGFLIKFFGAVYNNSIDNFKSAFKSNNDAQLEYLYNYILTGNASISYKWIKNGLKESPEEMASLVNRLIVHTMSFIK” here?
**A.** not soluble

**Q.** For “MGSDKIHHHHHHMKQFSGLSRTIQGNHLLDTCAIDILKIGHRPLVLCAKQEYNTTVESFVKVLTCHGLIVKIVYMEEWDQNSVEECGEVGFRHRADHIIGIGNSSVAACTKAVADLLDLPAVLIPTSPFTTLPWVSVENKKRERPLFNESIQLIIADREQLLTQPTSELINGVVNTLLYLAAIKEVKRNHLFSLVDDILIRSFESVLLRGSLQAIEDFEARILSKEVQDVLEVLSTCVTLDLPSDAWDVIQQIESKLSERREDLVDEPLKRNVVLYLLLSYLTQESEEFQARLKWCQQLLLSANSSNLLSLEAVLKEIALEMGEDGSTRC”, which “soluble on expression in E. coli” value is on record?
**A.** not soluble

**Q.** Which “soluble on expression in E. coli” value does the source give for “MGSDKIHHHHHHMKQYLRLRAFKAISFDLDDTLYHNTPYLQLATDKFFAFLNQNYPKTQTLHAQGWLTIKHDLFDLHPELKHDTSAARYAMVHDGLMSLGYKESEASEGAQKSMACFHFYRSDFTLDDKVLNLLKQLAESVTLVGISNGNVDASRIGLSESLAFVQHPGHGVKMKPHGDMFELACQRLNISPAELLHVGDHQMADVSGARRAGCQSVWFNPEKHPLTRRTGSILPHVELDDLNKLLNLV” here?
**A.** not soluble

**Q.** Which “soluble on expression in E. coli” value does the source give for “MGSDKIHHHHHHMKRLITTGAAFLLAATLSACNGNNTSETQGDRTEQAETVQADLFSADSAYTFVQRQVNFGPRIPGTAPHRACGDWLVATLRSFGAAVQEQTAEIKAHDGTMLPMRNIIASYRPEATGRMLLMAHWDTRPVCDQDANPAMHTETFDGADDGGSGVGVLLEIARYLGQQKDLGMGIDIVFFDTEDYGSYGDDESWCLGSQYWSRNPHVAGYKAEAGILLDMVGAKGATFYWEYFSKSYAPGLISAVWQTAAALGYGNYFIQADGGALTDDHVPVIKNLGIPCIDIINYSSKNEHGFGDHWHTQRDNMQIIDKNVLDAVGETVIRYLDEQVKAASH” here?
**A.** not soluble

**Q.** With “MGSDKIHHHHHHMKRPGFIERHHLWTEIQKEASEKIKTIVKEQDLLLIRTAWSDQHGIVRSKSLLPQAFFSALENGMQISTGTFLLDTGGAIVFNPFVPGGSLDMPLMTGAPNLVAVPDPDTFKIVPWAKRTGFILCDEYFQNGQPMPFSSRGILRQSLIDLHQRGLEHIVGLEVEWYLAKLEDPMLAIANVGSSGKPGEPAKVSAVDHSFQYLLESHNPEIQDLLGLLAENLVEMKLPLRSVENEGGVGQFEFTFDPIPALQAADTMMIFRMATKQICRQQGYIASFMCRPGLQGSSSNGWHLHQSLVDLTTGENAFMSANSQTLTSDLAKHFVGGLLKHANAASVFTTPTINGYKRFRPYSLAPDRAGWGLENRGAMIRLQGGFDDPSTHIENRVGEPAANPYLYMASQLISGLDGVDCKLDPGSPTEEPYTTENPILPKSLSEAISYLSQSELFPQKMGQQFINFIIKMKESEINRFLQSVADQPPEEYLKQVTNWEQREYFELF” as the sequence, how does the “soluble on expression in E. coli” value read?
**A.** not soluble

**Q.** For “MGSDKIHHHHHHMKSYFVTMGFNETFLLRLLNETSAQKEDSLVIVVPSPIVSGTRAAIESLRAQISRLNYPPPRIYEIEITDFNLALSKILDIILTLPEPIISDLTMGMRMINTLILLGIIVSRKRFTVYVRDEGGGSRVISFNDNTIRALMRDYSREEMKLLNVLYETKGTGITELAKMLDKSEKTLINKIAELKKFGILTQKGKDRKVELNELGLNVIKLNKSVIESSKSSEELVKENKGKEVNIPY”, which “soluble on expression in E. coli” value is on record?
**A.** not soluble

**Q.** Which “soluble on expression in E. coli” value does the source give for “MGSDKIHHHHHHMKTIKGPGIFLAQFIGTQAPFNTLAGIAQWAAGLGYKALQIPCNHPAIFDVERAAASQTYCDEVSGILAEHGLVISELSTHLEGQLVAVHPAYDAAFDAFAPAALHGDPQARQRWAVEKVRQAAVASGRLGLQAHATFSGALAWPFFYPWPPHNQPLLDEAFAELARRWRPLLDLFDEQGVDVCYEIHPGEDLHDGVTFERFLALVDNHPRCNMLYDPSHLHLQQMDYLAYIDIYHARIKAFHVKDAEFRRNGRNGVYGGYQPWQQRAGRFRSPGDGQIDFKGVFSKLTEYDFAGWAVLEWECCLKDSETGAREGSEFIRRHIIPVAGRAFDDFAAGGRE” here?
**A.** not soluble

**Q.** With “MGSDKIHHHHHHMKVFITGGTGFVGSAVVQELVANGFEVVGLARSETSAQKLISWGAQPVRGSLTSLSTLATAAAQADAIIHLGFNNDFRHFFQAGAMDRRAIETMGRAISGTNKPLVVTYGTTGIRKHVETEHEVADTGLLKWLTPRKSEIVARQLMAQNINAFVVRLSPAVHGAGDMGFTRTVIERAKKSHRAEYFGLGTHAWSAVHRLDAAHLFYLVTMYGLEHPTTNERVFNAVAEESITIAAIARTISRKLNVPLKAKYNPLSFGDTAMLYLINCPTSSQLTRQILGWVPVQPDLLTDISSSRY” as the sequence, how does the “soluble on expression in E. coli” value read?
**A.** not soluble

**Q.** For “MGSDKIHHHHHHMKVKLLSALNDNNVDMAQTNSQRQLAMTIFAIAGEFDQNLPLNLCLILDRSGSMHGQPIKTVIQAVEGLIDRLKVGDRISVVAFSGSVEVIIPNQVIEDPESIKSQIKSKLSASGGTAIAEGLELGITELMKGTRGAVSQAFLLTDGHGESSLRIWKWDIGRDDNKRCLKLAQKAAKLNLTINTFGFGNSWNQDLLEKIADVGGGTLAHIEHPEQAVEQFSRLFGRIQSIGLTNAYLLLSLVPNVRLAELKPIAQVAPDTIELPVERETDGSFAVRLGDLMQDVERVVLANIYLGQLPEGKQAIGHLQIRYDDPMVNQEDLLSPLMPIYADVVRAYQPASNPQVQQSILALAKYRQTQLAEAKLLQGDRTGAATMLQTAAKTALQIGDKGAATVLQTSATRLQAGEELSEADLKKTRIVSKTVLQE”, which “soluble on expression in E. coli” value is on record?
**A.** not soluble

**Q.** For “MGSDKIHHHHHHMKVLLYLEAEEYLKKSGIGRAIKHQEKALQIAGIDYTTNPTDDFDLVHMNTYGIRSWLLMSKAKKTGKKVIMHGHSTEEDFRNSFIGSNLVSPLFKWYLCRFYQKADAIITPTDYSKQLIKAYGIKKPIFVLSNGIDLSRYQRSEKKESAFRHYFHLSKDDKVVMGAGLYFMRKGIDQFVEVAAKMPDIRFIWFGETNKWVIPRKVRQIVTKQHPSNVTFAGYIKGDVYEGAMSASDAFFFPSREETEGIVVLEALASHQHVVLRDIPVYHGWVTEDSVELATDVDGFVEKLDKVLSGKSDKIKEGYHVAESRSIERIAHELASVYQKVMEL”, which “soluble on expression in E. coli” value is on record?
**A.** not soluble
